System: peptide library, one residue held at a place counted from the S/T acceptor
Experiment: relative phosphorylation of the sub-library (ratio to the mean residue at this position); higher = residue favoured
Conditions: human
Outline: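 Relative sub-library phosphorylation, a ratio to the mean residue at that position, was obtained by phosphorimaging and densitometry of spots on streptavidin membranes. Before capture, purified recombinant kinases were incubated for 90 min under kinase-specific conditions with 50 μM biotinylated degenerate peptide sub-libraries and 50 μM ATP spiked with γ-32P-ATP. Each sub-library fixed one residue at one position around a central Ser/Thr.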

Sequence of TAOK2, construct: aa1-350 (Q9UL54 1-350, looked up): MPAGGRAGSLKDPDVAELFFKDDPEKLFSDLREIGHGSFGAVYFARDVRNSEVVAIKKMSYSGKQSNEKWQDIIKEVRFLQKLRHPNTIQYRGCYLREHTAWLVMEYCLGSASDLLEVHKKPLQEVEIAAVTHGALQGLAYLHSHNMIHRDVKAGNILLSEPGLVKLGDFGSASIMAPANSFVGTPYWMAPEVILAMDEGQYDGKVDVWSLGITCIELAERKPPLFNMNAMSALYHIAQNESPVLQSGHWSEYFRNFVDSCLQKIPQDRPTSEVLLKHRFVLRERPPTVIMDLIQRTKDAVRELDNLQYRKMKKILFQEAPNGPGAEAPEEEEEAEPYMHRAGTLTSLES

TAOK2, construct: aa1-350 (from UniProt Q9UL54)
relative phosphorylation
Conditions	at +1	at +2	at +3	at +4	at -1	at -2	at -3	at -4	at -5
A fixed	0.607	0.791	0.808	0.75	0.832	0.94	0.901	0.992	1.03
D fixed	0.505	0.606	0.532	0.619	0.726	0.706	0.741	0.931	1.01
E fixed	0.496	0.483	0.501	0.593	0.566	0.621	0.725	0.92	0.888
F fixed	1.23	0.651	0.845	0.887	0.938	1.4	0.806	0.907	0.896
G fixed	0.606	0.697	0.953	0.937	1.45	1.13	1.34	1.14	1.13
H fixed	0.855	0.993	0.924	1.04	1.28	1.01	1.06	1.08	1.06
I fixed	1.47	0.723	0.761	0.763	0.561	0.703	0.642	0.746	0.73
K fixed	0.753	2.65	2	1.72	1.11	0.981	2.14	1.46	1.45
L fixed	1.49	0.644	0.807	0.778	1.1	0.709	0.672	0.781	0.767
M fixed	1.49	0.734	0.735	0.764	1.26	0.978	0.828	0.857	0.827
N fixed	0.64	1.24	0.876	0.845	1.16	0.972	0.944	1.1	1.05
P fixed	0.589	0.76	0.906	0.834	0.667	0.876	0.777	0.965	0.969
Q fixed	0.727	0.884	0.838	0.949	0.851	0.896	1	1.01	0.977
R fixed	0.778	2.81	2.84	2.19	1.27	1.1	1.59	1.28	1.38
V fixed	1.09	0.812	0.753	0.738	0.583	0.731	0.672	0.818	0.889
W fixed	2.32	0.69	1.04	1.35	1.1	1.08	1.02	1	0.986
Y fixed	1.35	0.835	0.873	1.24	1.54	2.16	1.13	1.01	0.96
pThr fixed	0.639	0.557	0.614	0.55	0.605	0.742	0.817	0.964	1
pTyr fixed	0.577	0.54	0.626	0.609	1.27	0.822	0.909	1.03	1.1
